Data as given in patent US20200200749A1 (VANDERBILT UNIVERSITY, published 2020).

T1: EBOV GP (recombinant, full-length extracellular domain) (EBOV (Ebola Zaire), UniProt Q05320 33-650)
T1 sequence: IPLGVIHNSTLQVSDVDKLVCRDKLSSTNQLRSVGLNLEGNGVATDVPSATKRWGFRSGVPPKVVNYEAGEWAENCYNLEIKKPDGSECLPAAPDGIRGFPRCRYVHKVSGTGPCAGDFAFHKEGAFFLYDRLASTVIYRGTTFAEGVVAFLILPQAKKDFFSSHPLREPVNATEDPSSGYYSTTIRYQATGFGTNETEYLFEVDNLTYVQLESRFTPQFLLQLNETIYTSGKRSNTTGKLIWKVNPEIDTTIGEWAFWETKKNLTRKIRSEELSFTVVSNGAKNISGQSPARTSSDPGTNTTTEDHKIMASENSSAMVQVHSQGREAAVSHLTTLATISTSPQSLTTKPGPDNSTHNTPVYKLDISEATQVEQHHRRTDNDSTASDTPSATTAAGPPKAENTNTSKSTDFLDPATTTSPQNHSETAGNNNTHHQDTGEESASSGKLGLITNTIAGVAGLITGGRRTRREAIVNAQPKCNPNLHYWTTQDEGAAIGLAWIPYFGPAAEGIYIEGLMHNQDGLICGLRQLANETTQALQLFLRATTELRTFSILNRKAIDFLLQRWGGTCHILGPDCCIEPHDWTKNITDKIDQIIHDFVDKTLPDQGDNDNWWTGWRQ

T2: SUDV GP (recombinant) (SUDV (Sudan ebolavirus), UniProt Q66814 33-650)
T2 sequence: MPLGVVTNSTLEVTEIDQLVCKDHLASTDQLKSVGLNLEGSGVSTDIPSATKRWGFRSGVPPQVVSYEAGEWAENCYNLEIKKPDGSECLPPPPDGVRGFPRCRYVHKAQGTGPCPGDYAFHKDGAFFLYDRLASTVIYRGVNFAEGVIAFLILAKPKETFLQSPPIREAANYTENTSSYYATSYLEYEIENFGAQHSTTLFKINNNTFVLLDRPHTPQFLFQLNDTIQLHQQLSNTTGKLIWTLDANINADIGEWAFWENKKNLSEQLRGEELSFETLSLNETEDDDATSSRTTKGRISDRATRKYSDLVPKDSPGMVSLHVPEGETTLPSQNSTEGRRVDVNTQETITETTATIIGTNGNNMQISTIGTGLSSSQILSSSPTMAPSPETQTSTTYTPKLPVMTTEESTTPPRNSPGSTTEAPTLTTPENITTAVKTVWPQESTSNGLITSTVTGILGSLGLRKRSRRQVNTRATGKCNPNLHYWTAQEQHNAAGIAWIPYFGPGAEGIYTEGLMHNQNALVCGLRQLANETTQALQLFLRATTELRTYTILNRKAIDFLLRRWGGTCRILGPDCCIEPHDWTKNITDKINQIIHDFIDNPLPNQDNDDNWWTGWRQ

T3: EBOV sGP (EBOV (Ebola Zaire), UniProt P60170 33-324)
T3 sequence: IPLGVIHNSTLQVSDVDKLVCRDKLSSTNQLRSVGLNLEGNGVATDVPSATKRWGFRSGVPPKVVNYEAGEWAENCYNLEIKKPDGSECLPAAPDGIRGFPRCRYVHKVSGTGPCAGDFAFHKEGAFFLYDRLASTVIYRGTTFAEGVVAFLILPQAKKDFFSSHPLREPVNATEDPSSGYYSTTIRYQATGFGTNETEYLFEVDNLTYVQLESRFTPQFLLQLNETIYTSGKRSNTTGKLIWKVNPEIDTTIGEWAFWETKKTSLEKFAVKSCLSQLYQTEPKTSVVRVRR

B1: EBOV62 (antibody, V domains shown)
VH: EVQLVESGGGLVQPGGSLRLSCAASGFTFSSYWMSWVRQAPGKGLEWVANIKQDGSAKYYVDSVKGRFTISRDNAKNSLYLQMNSLRAEDTAVYYCARDGLLGISDLLYPIYYFDYWGQGTLVTVSS
VL: DIVMTQSPSSLSASVGDRVTITCRASQNIGSYLNWYQQKPGKAPNLLMYAASSLQSGVPSRFSGSGSGTDFTLTITSLQPEDFATYYCQQSYSIPRTFGQGTQLEIK
B2: EBOV52 (antibody, V domains shown)
VH: QVQLQESGPGLVKPSETLSLNCTVSGGSISSYYWSWIRQPPGKGLEWIGYIYDSGRTKYNPSLKSRVTISLDTSKNQFSLKLSSVTAADTAVYYCASLGPFDKLWFGELLPGWFDPWGQGTLVTVSS
VL: EIVLTQSPATLSLSPGGRATLSCRASQSVHNYLAWYQQKSGQAPRLLIYDASNRATGIPARFSGSGSGTDFTLTISSLEPDDFAVYYCQHRSNWLTFGGGTKVEIK
B3: EBOV49 (antibody, V domains shown)
VH: EVQLVESGGGLVQPGGSLRLSCAASGFTFSSYEINWVRQAPGRGLEWVSYISSSGRTIYYADSVKGRFTISRDNAKNSLYLQMNSLRAEDTAVYYCAREPYVDGILYGAGDSYFDYWGQGTLVTVSS
VL: DIQMTQSPSSLSASVGDRVTITCRASQSISNYLNWYQQKPGKAPKVLIYAASSLQSGVSSRFSGSGSGTDFTLTISSLQPEDFATYFCQQSYNTPPVTFGQGTRLEIK
B4: EBOV63 (antibody, V domains shown)
VH: EVQLVESGGGLVKPGGSLRLSCAASGFTLNFYNMNWVRQAPGKGLEWVSSISSSSNYIYYADSVKGRFTISRDNARKSLYLQMNSLRAEDTAVYYCARDFVQLLIPQRDEWQGVHDYYGMDVWGQGTLVTVSS
VL: EIVLTQSPGTLSLSPGGRATLSCRASQSVSNSYLAWYQQKPGQAPRLLIYGASSRATGIPDRFSGSGSGTDFILTISRLEPEDFAVYYCQHYGSSQLTFGGGTKVEIK
B5: EBOV87 (antibody, V domains shown)
VH: QVQLVQSGAEVKRPGASVKVSCKASGYTFTSYAISWVRQAPGQGLEWMGWISGNNGNTNYAQKLQGRLTMTTDTSTSTAYMELRSLRSDDTAVYYCARDADIVVVVGATGTYYYGMDVWGQGTLVTVSS
VL: DIVMTQSPSTLSASVGDRVTITCRASQSISSWLAWYQQKPGKAPKLLIYDASSLESGVPSRFSGSGSGTEFTLTISSLQPDDFATYYCQQYKSSLRTFGQGTQLEIK

The binders below were run against T1, EBOV GP (recombinant, full-length …) (assay: ELISA, GP coated on plate, mAb serially diluted).
For B1, the EC50 was 228 µg/mL.
With B2 the EC50 was 712 µg/mL.
In the case of B3, the EC50 is reported as 262 µg/mL.
Work on B4 yielded an EC50 of 283 µg/mL.
For B5, the EC50 was 724 µg/mL.

These binders were tested against T2, SUDV GP (recombinant) (assay: ELISA, GP coated on plate, mAb serially diluted).
For B5, the EC50 was 629 µg/mL.

What follows are binders tested against T3, EBOV sGP (assay: ELISA, sGP coated on plate, mAb serially diluted).
Work on B1 yielded an EC50 of 51 µg/mL.
For B2, the EC50 was 82 µg/mL.
Binder B3 has an EC50 of 61 µg/mL.
B4 gave an EC50 of 38 µg/mL.
B5 gave an EC50 of 51 µg/mL.
